This is an account of results in patent US20120128678A1 (FORERUNNER PHARMA RESEARCH, published 2012).

The target in assay [1] is T1, fusion protein of MBP and TMPRSS11E SEA domain (human, UniProt Q9UL52 42-191).
T1 construct: Expressed in E. coli, purified and immobilized for the screening ELISA; also called fusion proteins of MBP and SEA domains
T1 sequence: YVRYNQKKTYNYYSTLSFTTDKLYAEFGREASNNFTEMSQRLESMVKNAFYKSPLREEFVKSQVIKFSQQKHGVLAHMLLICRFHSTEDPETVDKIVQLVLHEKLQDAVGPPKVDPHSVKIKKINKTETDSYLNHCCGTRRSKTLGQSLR
As to the kind of experiment: screening ELISA on immobilized MBP-SEA domain fusion protein. The protocol:
This fusion protein was used to immunize Balb/c mice or MRL/lpr mice. Hybridomas were established in the same way as above. New England Biolabs Inc. pMALc2x vectors were used in screening, which was performed by ELISA using fusion proteins of MBP and SEA domains that were expressed in E. coli, then purified, and immobilized on a solid phase. […] The nucleotide sequence of the EA230 heavy chain variable region is shown in SEQ ID NO: 53, and its amino acid sequence is shown in SEQ ID NO: 54. The nucleotide sequence of the EA230 light chain variable region is shown in SEQ ID NO: 55, and its amino acid sequence is shown in SEQ ID NO: 56.

Assay [2] has as its target T2, human TMPRSS11E, full-length, forced expression on cells (DG44, Ba/F3, SK-Hep-1) (human, UniProt Q9UL52 1-423).
T2 construct: also called DESC1; BaF/TMPRSS11E; not shown: C-terminal tag added through the antisense primer
T2 sequence: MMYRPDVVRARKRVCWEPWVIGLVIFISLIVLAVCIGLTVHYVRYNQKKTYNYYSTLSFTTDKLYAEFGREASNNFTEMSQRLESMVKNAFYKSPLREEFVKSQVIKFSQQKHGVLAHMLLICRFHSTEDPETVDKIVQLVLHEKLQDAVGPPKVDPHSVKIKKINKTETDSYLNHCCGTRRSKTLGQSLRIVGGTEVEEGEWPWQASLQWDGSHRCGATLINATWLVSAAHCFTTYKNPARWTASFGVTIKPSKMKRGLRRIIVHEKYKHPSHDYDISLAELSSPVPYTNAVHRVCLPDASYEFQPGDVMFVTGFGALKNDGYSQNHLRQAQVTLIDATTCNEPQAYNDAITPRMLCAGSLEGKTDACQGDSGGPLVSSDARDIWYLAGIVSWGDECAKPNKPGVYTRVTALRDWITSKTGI
As to the kind of experiment: immunoblot of BaF/TMPRSS11E cell lysate, 0.5 ug/mL EA230 (FIG. 7). The protocol: (§1) Cell lysates of Ba/F3, TMPRSS11E-expressing Ba/F3 (BaF/TMPRSS11E), a TMPRSS11E-negative cancer cell line VMRC-LCD, and TMPRSS11E-positive cancer cell lines h2009 and ME-180 were prepared. 50 μL of NP-40 Lysis Buffer (0.5% (v/v) Nonidet P40, 20 mM Tris-HCl (pH 7.5), 150 mM NaCl, 5 mM EDTA) was added to 1×10⁶ cells and left at 4° C. for 15 minutes. Then, after centrifugation (14,000 rpm, 15 min), the supernatant was used as lysates. The lysates corresponding to 2×10⁵ cells were separated by SDS-PAGE and then transferred to Immobilon-P (Millipore Corp.) using Trans-Blot SD Semi-Dry Electrophoretic Transfer Cell (Bio-Rad Laboratories, Inc.). The membrane was gently washed with TBS-T (0.05% Tween 20, TBS) and then shaken for 1 hour in TBS-T containing 5% skim milk. After shaking for approximately 10 minutes in TBS-T, 0.5 μg/mL EA230 antibodies diluted with TBS-T containing 1% skim milk were added to the membrane, which was then shaken for 1 hour. […] Since the presumed molecular weight of TMPRSS11E is 47.7 kDa, it seemed that TMPRSS11E that underwent sugar chain modification was probably detected. This means that TMPRSS11E can be detected specifically by immunoblot using EA230.
In general terms: A western blot detects proteins with antibodies after separation by electrophoresis.

The target in assay [3] is T3, human TMPRSS11E, endogenous, on cancer cell lines and in clinical cancer tissues (human, UniProt Q9UL52 1-423).
T3 construct: Endogenous protein of h2009, h2087, ME-180 and colo201 cells and of lung, uterine cervix and esophagus cancer tissue sections; also called DESC1
T3 sequence: T2 sequence
Put plainly: immunoblot of lysates of cancer cell lines (h2009, ME-180), 0.5 ug/mL EA230 (FIG. 7). The protocol:
as §1

Assay [4] concerns the target T3, human TMPRSS11E, endogenous, on cancer …. Put plainly: flow cytometry on cancer cell lines h2009, h2087, ME-180, colo201 (FIG. 3). The protocol:
(§2) The TMPRSS11E-constantly expressing cells thus constructed were evaluated for binding to the parental strain thereof by flow cytometry. The anti-TMPRSS11E antibody diluted to an appropriate concentration was added to cells corresponding to 5×10⁵ and reacted for 1 hour on ice. The cells were washed by centrifugation. Then, FITC-labeled anti-human IgG antibodies were added thereto and reacted for 1 hour on ice. The cells were washed by centrifugation and then suspended in a medium containing 2 μg/mL propidium iodide, and the suspension was applied to FACS Calibur (Becton, Dickinson and Company). […] The chimeric antibodies and low-fucose chimeric antibodies had equivalent avidity. Next, avidity to various cancer cell lines was evaluated by flow cytometry.
For orientation: A flow cytometer gives signals particle by particle.

For assay [5], the target named is T2, human TMPRSS11E, full-length, forced …. Put plainly: flow cytometry on TMPRSS11E-expressing Ba/F3 cells, FITC anti-human IgG detection (FIG. 2). The procedure: as §2
The target is the same in assay [6]. Put plainly: flow cytometry on TMPRSS11E-expressing SK-Hep-1 cells (FIG. 9).

B1: EA230 (mouse hybridoma antibody) (antibody, V domains shown)
VH: EVKLEESGGALVQPGGSMKLSCVASGFTVSNYWMSWVRQSPEKGLEWVAEVRLKSNNYVTHYAESVKGRFTISRDDSKSSVYLQMNNLRPEDTGIYYCTPFAYWGQGTLVTVSA
VL: QIVLTQSPAILSASPGEKVTLTCSANSSVSSSYLYWHQQKPGSSPKLWIYRTSKLASGVPARFSGSGSGTSYSLTISSMEAEDAASYFCHQWDTYPPTFGGGTKLEIK
As to B1, the binding result in assay [1], in assay [2] and in assay [3] was “binds” throughout.

B2: chi.TM191 (FTKO), low-fucose anti-TMPRSS11E mouse-human chimeric antibody (antibody, human IgG1, kappa, V domains shown)
VH: EVKLVESGGGLVKPGGSLKLSCAASGFTFSDYGMAWVRQAPGKGPEWVAFISNLAYSSYYADTVTGRFTISRENAKNTLYLEMSSLRSEDSAMYYCARRIFDYDGDGPYEDYWGQGTSVTVSS
VL: QIVLTQSPAIMSASPGEKVTLTCSATSSVSSRYVHWYQQKSGASPKLWIYGTSNLASGVPARFSGSGSGTSYSLTISSVEAEDAATYYCQQYHNDPPTFGAGTKLELKR
modifications: sugar chain free from alpha-1,6 core-fucose (produced in CHO_FTKO cells)
notes: also called low-fucose chimeric TM191
For B2, the binding result in assay [4] and in assay [5] was “binds” in each case.

B3: chi.TM191 (DG), anti-TMPRSS11E mouse-human chimeric antibody (antibody, V domains shown)
VH: B2 VH
VL: B2 VL
notes: Human IgG1/kappa constant regions, produced in DG44 CHO cells; also called chimeric TM191
Regarding B3, the binding result in assay [4] and in assay [5] was “binds” each time.

B4: TM191 (mouse hybridoma antibody) (antibody, V domains shown)
VH: B2 VH
VL: QIVLTQSPAIMSASPGEKVTLTCSATSSVSSRYVHWYQQKSGASPKLWIYGTSNLASGVPARFSGSGSGTSYSLTISSVEAEDAATYYCQQYHNDPPTFGAGTKLELK
notes: Mouse IgG1 kappa
Take B4: the binding result in assay [6] is “binds”.
